According to the Immune Epitope Database (IEDB):

molecular target: HLA-B*57:01; assay: IEDB peptide-MHC binding, purified MHC/competitive/radioactivity; ≥ and ≤ were set here for values at or beyond the usual limits of such assays; details: source organism: Bordetella pertussis

Row | Sequence | IC50 [µM]
1 | VALASQARW | 0.188
2 | YLRQITPGW | 1.54

molecular target: HLA-B*07:02; assay: as above; details: source organism: Bordetella pertussis

Row | Sequence | IC50 [µM]
3 | FVRDGQSVI | 5.56
4 | KDYRDKDGG | 69.6
5 | KPAPQPGPQ | 31.7
6 | PPRPVAAQV | 17.8

molecular target: HLA-B*53:01; assay: as above; details: source organism: Bordetella pertussis

Row | Sequence | IC50 [µM]
7 | DATFETYAL | 4.9
8 | EPQAELAVF | 4.52
9 | ESYSESHNF | 6.27
10 | FAILSSTTE | 47.1
11 | GAVPGGAVP | 69.9
12 | GGVPGGAVP | 26.7
13 | LPVRGVALV | ≥ 78.2

molecular target: HLA-A*02:01; assay: as above; details: source organism: Bordetella pertussis

Row | Sequence | IC50 [µM]
14 | GKLPKPVTV | 69.4

molecular target: HLA-B*35:01; assay: as above; details: source organism: Bordetella pertussis

Row | Sequence | IC50 [µM]
15 | FAILSSTTE | 69.9
16 | KPAPTAPPM | 0.019
17 | LPVRGVALV | 69.9

molecular target: HLA-B*44:03; assay: as above; details: source organism: Bordetella pertussis

Row | Sequence | IC50 [µM]
18 | AEHGEVSIQ | 2.88
19 | AEVKVGYRA | 2.36
20 | KEAATIVAA | 15
21 | SESHNFHAS | 32.7
